Measured values taken from IntAct's records for PubMed 16247757.

B1: Lamina-associated polypeptide 2, isoform alpha (Homo sapiens), P42166 (parent)
chain: MPEFLEDPSVLTKDKLKSELVANNVTLPAGEQRKDVYVQLYLQHLTARNRPPLPAGTNSKGPPDFSSDEEREPTPVLGSGAAAAGRSRAAVGRKATKKTDKPRQEDKDDLDVTELTNEDLLDQLVKYGVNPGPIVGTTRKLYEKKLLKLREQGTESRSSTPLPTISSSAENTRQNGSNDSDRYSDNEEGKKKEHKKVKSTRDIVPFSELGTTPSGGGFFQGISFPEISTRPPLGSTELQAAKKVHTSKGDLPREPLVATNLPGRGQLQKLASERNLFISCKSSHDRCLEKSSSSSSQPEHSAMLVSTAASPSLIKETTTGYYKDIVENICGREKSGIQPLCPERSHISDQSPLSSKRKALEESESSQLISPPLAQAIRDYVNSLLVQGGVGSLPGTSNSMPPLDVENIQKRIDQSKFQETEFLSPPRKVPRLSEKSVEERDSGSFVAFQNIPGSELMSSFAKTVVSHSLTTLGLEVAKQSQHDKIDASELSFPFHESILKVIEEEWQQVDRQLPSLACKYPVSSREATQILSVPKVDDEILGFISEATPLGGIQAASTESCNQQLDLALCRAYEAAASALQIATHTAFVAKAMQADISQAAQILSSDPSRTHQALGILSKTYDAASYICEAAFDEVKMAAHTMGNATVGRRYLWLKDCKINLASKNKLASTPFKGGTLFGGEVCKVIKKRGNKH

Variants of: B1
Settings: with lmna_human LMNA

Variant	effect of a mutation on the interaction
R690C	decreasing interaction
